Reference: paper PMC2958812, “Evidence for a Xer/dif System for Chromosome Resolution in Archaea”

T1: XerA (Pab0255) (Pyrococcus abyssi, UniProt Q9V1P5 1-286)
T1 sequence: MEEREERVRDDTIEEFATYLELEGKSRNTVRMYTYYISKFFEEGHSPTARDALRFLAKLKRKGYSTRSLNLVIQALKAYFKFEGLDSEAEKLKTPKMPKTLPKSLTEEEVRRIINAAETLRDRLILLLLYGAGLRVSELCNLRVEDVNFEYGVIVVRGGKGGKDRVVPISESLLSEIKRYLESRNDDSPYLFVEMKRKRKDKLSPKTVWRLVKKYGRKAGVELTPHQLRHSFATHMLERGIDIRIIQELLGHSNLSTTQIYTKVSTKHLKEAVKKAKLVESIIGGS


Columns and labels:
[1] = biological target: T1, XerA (Pab0255); assay: EMSA; 20 C; 0.5 ug poly(dIdC); EMSA: 0.5 uM labeled DNA, 50 mM Tris pH 7.5, 30 mM NaCl, 0.5 ug poly(dIdC).poly(dIdC), 20 ul, 30 min at 20 or 65 C; native PAGE in TGE at 4 C; conditions: protein: recombinant; tags: N-terminal His6 (MHHHHHH, from forward primer); label: 5'-32P on top strand; blunt
[2] = biological target: T1, XerA (Pab0255); assay: EMSA; 65 C; 0.5 ug poly(dIdC); EMSA: 0.5 uM labeled DNA, 50 mM Tris pH 7.5, 30 mM NaCl, 0.5 ug poly(dIdC).poly(dIdC), 20 ul, 30 min at 20 or 65 C; native PAGE in TGE at 4 C; conditions: protein: recombinant; tags: N-terminal His6 (MHHHHHH, from forward primer); label: 5'-32P on top strand; blunt

Binder | binding signal [1] | binding signal [2]
dif-Pab (dsDNA) DNA 1: GTTAACTATATTGGATATAATCGGCCTTATATCTAAAGTGTTG DNA 2: CAACACTTTAGATATAAGGCCGATTATATCCAATATAGTTAAC | 4 fold complex formation vs attP | 8 fold complex formation vs attP
attP (SSV1 minimal) (dsDNA) DNA 1: GTTAACTATCTTTTCCGCCTCCGGAGCCGGAGGTCCCGTGTTG DNA 2: CAACACGGGACCTCCGGCTCCGGAGGCGGAAAAGATAGTTAAC | 0.25 complex formation relative to dif-Pab (4 fold less) | 0.125 complex formation relative to dif-Pab (8 fold less)
